Results reported in patent publication US4944948A, “EGF/Liposome gel composition and method” (Liposome Technology, Inc., priority 1989, dated 1990).
Where two headings read alike, the source gives them in different places.

Tests used:
[1] = 37° C., 25% human plasma/saline, 0.08 μm filter
Description: Liposome formulations were evaluated in vitro by release rates of 125 I-rh-EGF into the receiver compartments of percutaneous absorption cells that were continuously perfused with 25% pooled human plasma/saline.
A conventional two-chamber absorption cell, using a bath temperature of 37° C., was employed (Bronaugh). A 25 mm, 0.08 μm diameter Nuclepore (Pleasanton, Calif.) polycarbonate filter was used to separate the donor from the flow-through acceptor compartment. […] The ^125 I-rh-EGF preparation was mixed with an equal quantity of 25% pooled human plasma/isotonic saline and 200 μl aliquots were immediately applied to the donor compartments. Parafilm was used to occlude the donor compartment and prevent evaporative loss. The perfusate was collected by fraction collector into scintillation vials and mounted in a Packard TriCarg 20000. rh-EGF flux was calculated from the specific activity (DPM per μg peptide). Clearance rate half-lives were determined for individual percutaneous absorption cells as described below.
In this single phase system, it is possible to determine the concentration of peptide remaining in the donor compartment by subtracting cumulative peptide in the measured in the receiver compartment from total peptide applied to the donor compartment. […]

[2] = for % Lost (of total dose administered): from first order rate constants
Description: The amount of radioactivity remaining in the injected eye was measured for up to 96 hours after injection (until at least 90% of the initial radioactivity had disappeared). An external NaI crystal detector/ratemeter (The Nucleus Model L) was placed directly over the eye and radioactivity measured for 2 minutes and recorded on a chart recorder. […] The mean chart deflection during each recording was taken as the measurement at that time point. The first reading was taken immediately after injection ("zero time") and subsequent measurements were converted to a percentage of this initial amount.
Individual radioactivity versus time data were recorded for each animal, and the mean values for each animal group (N=4-6) were calculated.
Each plot was used to calculate first order rate constants for EGF disappearance from the eye for each formulation by a non linear least squares fitting method (RSTRIP, MicroMath, Salt Lake City, Utah).
At =A0 * e ^-kt or 1n(At)=1n (A0)-kt
where k=0.693 / t1/2, the amount of EGF lost from the eye during any day can be calculated.

[3] = rabbit, subconjunctival injection

Question: Which “Half-life of EGF release in vitro (slow phase for liposomes)” value [1] does the source give for `CC[C@H](C)[C@@H]1NC(=O)[C@H](Cc2ccc(O)cc2)NC(=O)CNC(=O)[C@H](C(C)C)NC(=O)[C@H](C(C)C)NC(=O)[C@@H](NC(=O)[C@H](CC(N)=O)NC(=O)[C@@H]2CSSC[C@@H]3NC(=O)[C@H](Cc4ccc(O)cc4)NC(=O)CNC(=O)[C@H](CC(=O)O)NC(=O)[C@H](Cc4c[nH]cn4)NC(=O)[C@H](CO)NC(=O)[C@H](CC(C)C)NC(=O)[C@@H]4CCCN4C(=O)[C@@H](NC(=O)[C@H](CCC(=O)O)NC(=O)[C@H](CO)NC(=O)[C@H](CC(=O)O)NC(=O)[C@H](CO)NC(=O)[C@@H](N)CC(N)=O)CSSC[C@H](NC(=O)[C@H](C(C)C)NC(=O)CNC(=O)[C@H](CC(=O)O)NC(=O)[C@H](Cc4c[nH]cn4)NC(=O)[C@H](CC(C)C)NC3=O)C(=O)N[C@@H](CCSC)C(=O)N[C@@H](Cc3ccc(O)cc3)C(=O)N[C@@H]([C@@H](C)CC)C(=O)N[C@@H](CCC(=O)O)C(=O)N[C@@H](C)C(=O)N[C@@H](CC(C)C)C(=O)N[C@@H](CC(=O)O)C(=O)N[C@@H](CCCCN)C(=O)N[C@@H](Cc3ccc(O)cc3)C(=O)N[C@@H](C)C(=O)N2)CSSC[C@@H](C(=O)N[C@@H](CCC(N)=O)C(=O)N[C@@H](Cc2ccc(O)cc2)C(=O)N[C@@H](CCCNC(=N)N)C(=O)N[C@@H](CC(=O)O)C(=O)N[C@@H](CC(C)C)C(=O)N[C@@H](CCCCN)C(=O)N[C@@H](Cc2c[nH]c3ccccc23)C(=O)N[C@@H](Cc2c[nH]c3ccccc23)C(=O)N[C@@H](CCC(=O)O)C(=O)N[C@@H](CC(C)C)C(=O)N[C@@H](CCCNC(=N)N)C(=O)O)NC(=O)[C@H](CCCNC(=N)N)NC(=O)[C@H](CCC(=O)O)NC(=O)CNC1=O` [Free EGF, Epidermal Growth Factor] here?
Answer: The value was “about 1.8 hours”.

Question: What about the “% Lost (of total dose administered)” value ([2]; Day 1, includes initial burst) of the same compound?
Answer: The value was 100%.

Question: And the “% Lost (of total dose administered)” value ([2]; Day 2)?
Answer: Its value is 0%.

Question: And the “% Lost (of total dose administered)” value ([2]; Day 3)?
Answer: Its value is 0%.

Question: What about the “% Lost (of total dose administered)” value ([2]; Day 4) of the same compound?
Answer: The value was 0%.

Question: What about the “% Lost (of total dose administered)” value ([2]; Day 5) of the same compound?
Answer: The value was 0%.

Question: And the “% Lost (of total dose administered)” value ([2]; Day 6)?
Answer: The value was 0%.

Question: And the “% Lost (of total dose administered)” value ([2]; Day 7)?
Answer: The value was 0%.

Question: And the “Dose remaining in the eye” value ([2]; after 3 hours)?
Answer: The value was “Less than 15%”.

Question: What about the “EGF available at the conjunctival site” value ([2]; one day after administration) of the same compound?
Answer: The value was “substantially no EGF was available”.

Question: What about the “Half life of EGF retention in the eye” value [2, 3] of the same compound?
Answer: Its value is 1 h.

Question: And the “Half-life of EGF disappearance from the eye” value [2, 3]?
Answer: The value was 1.0 h.

Question: And the “Half life of EGF retention in the eye” value ([2]; rabbit, subconjunctival injection, listed as unencapsulated EGF)?
Answer: The value was 1.0 h.

Question: What about the “Rate constant of EGF disappearance from the eye” value ([2]; rabbit, subconjunctival, fit of loglinear portion after initial burst) of the same compound?
Answer: The value was 0.69 h⁻¹.
